Test system: STAT3 phosphorylation in healthy keratinocytes
Assay: Western blot of STAT3 phosphorylation in healthy keratinocytes (IL-22)
Type: cell-based, human
Settings: IL-22 time course, no peptide, n = 3
Experimental: Figure 5 KIR-ESS peptide inhibits IL-22-induced phosphorylation of STAT3 and Erk in healthy and SCC-derived keratinocytes (A) Protein extracts obtained from healthy keratinocytes (n = 3) pre-treated or not with 15 μM (left panel) or 75 μM (right panel), KIR, KIR-ESS and control (Ctrl1 or Ctrl2) peptides, and, then, […], were subjected to WB analysis to detect STAT3 (Tyr705), Erk and MEK phosphorylation. Filters were probed with anti-STAT3, -Erk and –MEK Abs (top). (B) Protein extracts obtained from healthy keratinocytes (n = 3) pre-treated or not with 75 μM KIR-ESS and control (Ctrl1) peptides, and, then, stimulated or not with IL-22 for 10 min, were subjected to immunoprecipitation for IL-22R1 and Jak1, and then analysed by WB to detect phosphorylated and unphosphorylated forms of the proteins. (C) Unphosphorylated and phosphorylated forms of STAT1 (Tyr701) and STAT3 (Tyr705) were monitored in keratinocytes treated with IFN-γ for 15 min by WB analysis (bottom). In all experimental groups, filters were stripped and re-probed with β-actin Ab. (D) Protein extracts were obtained from CAL27 (left panel) or CAL33 (right panel) lines treated or not with 75 μM peptides in presence of IL-22 or IFN-γ. WB was performed to detect basal and phosphorylated STAT1, STAT3 and Erk. D.I. ratio indicates the densitometric intensity of phosphorylated/unphosphorylated target protein. […]

B1: IL-22: cytokine stimulus, R&D Systems (protein, UniProt Q9GZX6 34-179, looked up)
Interleukin-22: APISSHCRLDKSNFQQPYITNRTFMLAKEASLADNNTDVRLIGEKLFHGVSMSERCYLMKQVLNFTLEEVLFPQSDRFQPYMQEVVPFLARLSNRLSTCHIEGDDLHIQRNVQKLKDTVKKLGESGEIKAIGELDLLFMSLRNACI
With B1 as the molecule, how does the STAT3 activation read?
The STAT3 activation was “culminated with STAT3, MEK1/2 and Erk1/2 activation”.

— article PMC5421877, “SOCS3 inhibits the pathological effects of IL-22 in non-melanoma skin tumor-derived keratinocytes” (Oncotarget, 2017)
